According to patent US20240059769A1 (BIOLOJIC DESIGN, published 2024):
Like-named read-outs stand apart in the source and are kept apart here. Values belong to the binder of their own block, whether it stands above or below them.

Assays:
human TSLP [1] = target: T1, human TSLP (human, UniProt Q969D9 29-159); assay: SPR (ProteOn XPR36), antibody captured, hTSLP analyte 3.2-0.2 nM
T1 construct: also called hTSLP; rhTSLP

recombinant human IL-13 [2] = target: T2, recombinant human IL-13 (human, UniProt P35225 35-146); assay: SPR, steady state, antibody captured, hIL-13 analyte
T2 construct: also called rh-IL-13; hIL-13
T2 sequence (P35225 35-146 limits assumed): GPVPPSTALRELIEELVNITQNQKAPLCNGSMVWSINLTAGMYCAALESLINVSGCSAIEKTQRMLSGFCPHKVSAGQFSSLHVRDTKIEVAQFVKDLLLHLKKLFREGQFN
Description: Subsequent to a cycle, the analyte and tested antibody were stripped from the chip and new tested Ab was loaded on the chip as described above. KD was determined at a steady state condition.

recombinant human IL-13 [3] = target: T2, recombinant human IL-13; assay: cell-based or functional assay
human TSLP [4] = target: T1, human TSLP; assay: cell-based or functional assay
recombinant human IL-13 [5] = target: T2, recombinant human IL-13; assay: SPR
human TSLP [6] = target: T1, human TSLP; assay: SPR
hIL-13-His [7] = target: T3, hIL-13-His (human, UniProt P35225 35-146); assay: SPR (Biacore), antibody captured on anti-human Fc chip, hIL-13 as analyte, multi-cycle, 1:1 binding model
T3 construct: bought; also called human IL-13 (Acro Biosystems IL3-H52H4); not shown: His tag
T3 sequence (P35225 35-146 limits assumed): as above

hTSLP-His = hTSLP-His (human, UniProt Q969D9 29-159, limits assumed); assay: cell-based or functional assay
[8] = target: T4, recombinant cynomolgus monkey IL-13 (cynomolgus monkey, UniProt Q0PW92 21-132); assay: SPR
T4 construct: bought; also called rc-IL-13; cIL-13
T4 sequence (Q0PW92 entry or part of it): as the sequence (P35225 35-146 limits assumed) above, with G1S, R10K, M42V, S67N, H83R, L100V counted along it

[9] = target: T5, cynomolgus monkey (cyno) TSLP (cynomolgus monkey, UniProt A0A7N9CAT7 29-159); assay: SPR
T5 construct: also called cTSLP; cynomolgus TSLP
T5 sequence (A0A7N9CAT7 entry or part of it): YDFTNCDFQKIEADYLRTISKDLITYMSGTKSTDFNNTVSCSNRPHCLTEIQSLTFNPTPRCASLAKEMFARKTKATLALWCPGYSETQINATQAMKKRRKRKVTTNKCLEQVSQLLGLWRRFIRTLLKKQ

recombinant human IL-13 [10] = target: T2, recombinant human IL-13; assay: cell-based or functional assay; remark: listed apart in the source
human TSLP [11] = target: T1, human TSLP; assay: SPR (Biacore), antibody captured on anti-human Fc chip, hTSLP as analyte, multi-cycle, 1:1 binding model
hIL-13-His [12] = target: T3, hIL-13-His; assay: cell-based or functional assay
T3 sequence (P35225 35-146 limits assumed): as the sequence (P35225 35-146 limits assumed) above

hIL-13-His [13] = target: T3, hIL-13-His; assay: SPR (Biacore), antibody captured on anti-human Fc chip, hIL-13 as analyte, multi-cycle, 1:1 binding model; remark: listed apart in the source
human TSLP [14] = target: T1, human TSLP; assay: SPR (Biacore), antibody captured on anti-human Fc chip, hTSLP as analyte, multi-cycle, 1:1 binding model; remark: listed apart in the source

B1: BDG33.004 (antibody, V domains shown)
VH: QMQLVESGGGVVQPGRSLRLSCAASGFTFRTYGMHWVRQAPGKGLEWVAVIWYDGSNKHYADSVKGRFTITRDNSKNTLNLQMNSLRAEDTAVYYCARAPQWMLVAEAFDLWGQGTMVTVSS
VL: SYVLTQPPSVSVAPGQTARITCGGNLIGSKLVHWYQQKPGQAPVLVVYDDSDRPSRIPERFSGSNSGNTATLTISRVEAGDEADYYCQVWDSSSDHVVFGGGTKLTVL
notes: human IgG1, lambda light chain; also called BGD33.004; Clone C6 (as IgG1)
- Kd (human TSLP [1]): 3.33 nM
- koff (human TSLP [1]): 0.00114 s⁻¹
- kon (human TSLP [1]): 344000 M⁻¹ s⁻¹
- Kd (recombinant human IL-13 [2]): 57.4 nM

B3: BDG38.138 (antibody, human IgG1, lambda, L234A L235A)
heavy: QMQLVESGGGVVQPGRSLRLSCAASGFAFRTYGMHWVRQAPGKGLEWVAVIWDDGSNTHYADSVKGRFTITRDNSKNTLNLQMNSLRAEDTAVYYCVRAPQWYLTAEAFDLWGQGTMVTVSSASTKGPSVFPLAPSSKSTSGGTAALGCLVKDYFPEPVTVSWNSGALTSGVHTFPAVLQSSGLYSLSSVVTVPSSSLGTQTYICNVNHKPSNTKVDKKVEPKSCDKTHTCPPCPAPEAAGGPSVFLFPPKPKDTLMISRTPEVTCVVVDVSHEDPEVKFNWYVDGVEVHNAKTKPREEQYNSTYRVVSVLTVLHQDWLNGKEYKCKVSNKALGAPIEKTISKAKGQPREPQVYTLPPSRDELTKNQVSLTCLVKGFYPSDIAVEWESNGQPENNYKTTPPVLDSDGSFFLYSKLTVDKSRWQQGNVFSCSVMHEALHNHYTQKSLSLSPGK
light: SYVLTQPPSVSVAPGETASITCGGNMIGGYLVHWYQQKPGQAPVLVIYDDVDRPSRIPERFSGSNSGNTATLTISRVEAGDEADYYCQVWDHNSNHMVFGGGTKLTVLGQPKAAPSVTLFPPSSEELQANKATLVCLISDFYPGAVTVAWKADSSPVKAGVETTTPSKQSNNKYAASSYLSLTPEQWKSHRSYSCQVTHEGSTVEKTVAPTECS
notes: human IgG1 L234A/L235A/P329G (LALAPG); also called hIgG1 LALAPG; hIgG1 LALA-PG
- IC50 CD23 (recombinant human IL-13 [3]): 0.164 nM
- IC50 TARC (human TSLP [4]): 2.36 nM
- Kd (recombinant human IL-13 [5]): 0.0134 nM
- koff (recombinant human IL-13 [5]): 0.00016 s⁻¹
- kon (recombinant human IL-13 [5]): 1.19e+07 M⁻¹ s⁻¹
- Kd (human TSLP [6]): 0.00285 nM
- koff (human TSLP [6]): 4.28e-05 s⁻¹
- kon (human TSLP [6]): 1.5e+07 M⁻¹ s⁻¹
- Kd (hIL-13-His [7]): 0.0523 nM
- koff (hIL-13-His [7]): 0.000455 s⁻¹
- kon (hIL-13-His [7]): 8.7e+06 M⁻¹ s⁻¹
- IC50 [pM], STAT5 phosphorylation inhibition in MUTZ5 cells (hTSLP-His): 45.2 pM
- Kd [8]: 0.849 nM
- koff [8]: 0.00653 s⁻¹
- kon [8]: 7.7e+06 M⁻¹ s⁻¹
- Kd [9]: 0.00135 nM
- koff [9]: 1.85e-05 s⁻¹
- kon [9]: 1.37e+07 M⁻¹ s⁻¹
- HEK-IL-13 [nM] (IC50, STAT6 reporter) (recombinant human IL-13 [10]): 0.0286 nM
- Kd (human TSLP [11]): 0.00661 nM
- koff (human TSLP [11]): 0.000212 s⁻¹
- kon (human TSLP [11]): 3.2e+07 M⁻¹ s⁻¹

Further lines, results first:

- Kd (human TSLP [1]): 4.5 nM
- koff (human TSLP [1]): 0.00129 s⁻¹
- kon (human TSLP [1]): 287000 M⁻¹ s⁻¹
- Kd (recombinant human IL-13 [2]): 21.6 nM
B2: BDG33.003 (antibody, V domains shown)
VH: QMQLVESGGGVVQPGRSLRLSCAASGFTFRTYGMHWVRQAPGKGLEWVAVIWYDGSNKHYADSVKGRFTITRDNSKNTLNLQMNSLRAEDTAVYYCARAPQWELTAEAFDIWGQGTMVTVSS
VL: SYVLTQPPSVSVAPGQTARITCGGNLIGSKLVHWYQQKPGQAPVLVVYDDSDRPSLIPERFSGSNSGNTATLTISRVEAGDEADYYCQVWDSSSDGVVFGGGTKLTVL
notes: also called BGD33.003; Clone C2 (as IgG1)

- IC50, CD23 expression on monocytes (hPBMC, 0.7 nM IL-13) (hIL-13-His [12]): 0.38 nM
- Kd (hIL-13-His [13]): 0.0879 nM
- koff (hIL-13-His [13]): 0.000323 s⁻¹
- kon (hIL-13-His [13]): 3.67e+06 M⁻¹ s⁻¹
- Kd (human TSLP [14]): 0.00779 nM
- koff (human TSLP [14]): 0.0002 s⁻¹
- kon (human TSLP [14]): 2.57e+07 M⁻¹ s⁻¹
B4: BDG38.145 (antibody, human IgG1, lambda, L234A L235A)
heavy: not shown
light: SYVLTQPPSVSVAPGETASITCGGNMIGGYLVHWYQQKPGQAPVLVIYDDVDRPSRIPERFSGSNSGNTATLTISRVEAGDEADYYCQVWDHNSNHMVFGGGTKLTVLGQPKAAPSVTLFPPSSEELQANKATLVCLISDFYPGAVTVAWKADSSPVKAGVETTTPSKQSNNKYAASSYLSLTPEQWKSHRSYSCQVTHEGSTVEKTVAPTECS
notes: human IgG1 L234A/L235A (LALA); same VH/VL as BDG38.138; also called BSG38.145; hIgG1 LALA
